Stoichiometry N data for one substance are collected here from paper PMC8202325.

Where “and” joins values, the source holds several entries; their conditions need not be identical. Equal values may be shown once.

The experiment addresses His::PfPLSCR (recombinant full-length Plasmodium falciparum phospholipid scramblase with an N-terminal hexa-histidine affinity tag) (P. falciparum). In words: native gel or EMSA; blue native PAGE (NativePAGE Novex Bis-Tris, G250 additive) of eluted fractions of the main SEC peak; protein purified in 250 mM NaCl, 0.5 mM CaCl2, 1 mM TCEP, 0.1 % FC-12, 25 mM HEPES pH 7.5.

As usually defined, the stoichiometry N is the number of molecules, sites or subunits per partner or assembly. Turning to “His::PfPLSCR (recombinant full-length Plasmodium falciparum phospholipid scramblase with an N-terminal hexa-histidine affinity tag) (natural protein)”, the stoichiometry N is 2 and 4.
